Measurements as given in patent US5576288A, “Fibroblast growth factor conjugates” (The Salk Institute For Biological Studies, priority 1994, dated 1996).

Experiments:
BHK cells [1] = test: competition of cytotoxicity by preincubation with basic FGF or NGF; type: cell-based, baby hamster; details: BHK cells preincubated one hour; basic FGF-SAP 10^-10 M; up to thousand-fold excess; FIG. 4
Method: Basic FGF-SAP was used at a concentration of 10^-10 M basic FGF-AP and C: preincubation with equimolar free of basic FGF; D: 10-fold excess of free basic FGF; E: 100-fold excess of basic FGF; F: 1000-fold excess of basic FGF; G: equimolar incubation with equimolar free NGF; H: 10-fold molar excess; I: 100-fold molar excess, J: […].
Specificity of the cytotoxic agent was examined in competition experiments in an effort to establish that the mitotoxic activity of the conjugate is receptor specific. BHK cells were preincubated for one hour with various levels of basic FGF or nerve growth factor (NGF) prior to treatment of the cells with the cytotoxic agent. […] In contrast, a thousand-fold excess of NGF has no effect.

BHK cells [2] = test: cytotoxic activity on BHK cells (cell count after two days); type: cell-based, baby hamster; details: highest dose tested 10^-8 M, FIG. 3
Method: The protein synthesis inhibition activity of the SAP protein was compared to the protein synthesis inhibition activity of the basic FGF-SAP conjugate in in vitro assays of protein synthesis as described in Siehn et al., Blood, 72:756-765 (1988), which is incorporated herein by reference. The cytotoxic activity of the conjugate was tested on baby hamster kidney fibroblasts (ATCC Accession No. CRL 6281). BHK cells were plated in 24 well plates at a concentration of 5000 cells/ml and incubated overnight at 37° C., 5% CO2. The following morning, HEPES-buffered DMEM and F-12 media (1:1) plus 5% FCS was aspirated from the wells and replaced with media alone or with media containing the conjugate, basic FGF or saporin. Two days later, the cells were washed twice, trypsinized and cell number determined with a Coulter Particle Counter (Coulter Electronics, Hialeah, Fla.).

Substance	effect of preincubation on cytotoxic activity of basic FGF-SAP (BHK cells [1])	toxic effect on BHK cell proliferation (BHK cells [2])
NGF: nerve growth factor used as competition control	no effect	
SAP: type-1 ribosome-inactivating protein isolated from the seeds of Saponaria officinalis		no toxic effect
